Experimental findings from PMC5626551 are described below.

In test [1] the target is 14-3-3ε (UniProt P92177). In words: GST-14-3-3ε pull-down, anti-GFP blot. The note with it: reference: wild type Ncd-GFP; sites S96.
Test [2] deals with 14-3-3ε (UniProt P92177). In words: MBP-14-3-3ε pull-down, anti-pS96 blot. To be noted: reference: unphosphorylated Ncd tail (control not described in text); sites S96.
The target of test [3] is 14-3-3ε (UniProt P92177). In words: MBP-14-3-3ε amylose pull-down of purified tail. To be noted: reference: Ncd tail without kinase; sites S96.

With “Ncd (kinesin-14) (from UniProt P20480) S96A”, the “binding against the reference” value with 14-3-3ε [1] was “weaker”.

In the case of “Ncd (kinesin-14) tail, 58-192 (from UniProt P20480) Ncd tail after PKD2 and cold ATP”, in the test with 14-3-3ε [2], the “binding against the reference” value is “stronger”.

Take “Ncd (kinesin-14) tail, 58-192 (from UniProt P20480) PKD2-phosphorylated Ncd tail”: the “binding against the reference” value with 14-3-3ε [3] was “stronger”.
